Experimental data taken from patent US6683162B2, “Targeted alpha particle therapy using actinium-255 conjugates” (Sloan Kettering Institute of Cancer Research, priority 2000, dated 2004).

Tested on: LNCaP tumor xenograft
Experiment: Biodistribution of 225Ac/221Fr/213Bi in LNCaP tumor bearing mice
Conditions: for A2(o)/A2(eq) Bi-213 at sacrifice time / A2(o)/A2(eq) Fr-221 at sacrifice time / % ID/g Ac-225 / % ID/g Bi-213 / % ID/g Fr-221: 48 hour, mean; for A2(o)/A2(eq) Bi-213 at sacrifice time / A2(o)/A2(eq) Fr-221 at sacrifice time: daughter/parent ratio
Procedure: An [225Ac]DOTA-J591 biodistribution experiment was carried-out using a male athymic nude (8-12 weeks old) mouse (Taconic, Germantown, N.Y.) model with an i.m. xenograft of 5E6 LNCaP tumor cells in Matrigel (Becton Dickinson Labware, Bedford Mass.) implanted in the right hind leg. The tumors were allowed to grow for 4 weeks and then the mice were separated into two groups (n=12 per group). One group received approximately 0.55 mL of [225Ac]DOTA-J591 (350 nCi ^225Ac on 0.0035 mg J591) and the other group received the irrelevant control [225Ac]DOTA-HuM195 (350 nCi 225Ac on 0.0026 mg HuM195) via i.p. injection. Three to four animals from each group were sacrificed at 48 h and 72 h post injection. Blood and tissue samples including: heart, kidneys, lung, spleen, liver, stomach, intestine, and tumor were harvested, weighed and counted using a Packard Cobra Gamma Counter (Packard Instrument Co., Inc., Meriden, Conn.) with two energy windows, ^221Fr (185-250 KeV window) and ^213Bi (360-480 window). The percent of the injected dose per gram of tissue (% ID/g) was determined by measuring the activity in […] aliquots of each respective [^225Ac]mAb injectate in triplicate. After the initial 48 h time point data was analyzed, attention was focused on collection of blood, tumor, heart, kidney and small intestine samples as the need to rapidly sacrifice, harvest, and count was necessary in order to measure ^221Fr in the samples.
Using known methods (28), values of A2(o)/A2(eq) were determined for each tissue sample.

225Ac-HuM195-DOTA
225Ac uptake in the liver (48 h, LNCaP tumor bearing mice, i.p.): less than 8%
A2(o)/A2(eq) Bi-213 at sacrifice time (Blood): 0.04
A2(o)/A2(eq) Fr-221 at sacrifice time (Blood): 0.13
% ID/g Ac-225 (Blood): 13.5 % ID/g
% ID/g Bi-213 (Blood): 0.55 % ID/g
% ID/g Fr-221 (Blood): 0.18 % ID/g
A2(o)/A2(eq) Bi-213 at sacrifice time (Heart): 0.99
A2(o)/A2(eq) Fr-221 at sacrifice time (Heart): 1.6
% ID/g Ac-225 (Heart): 3.9 % ID/g
% ID/g Bi-213 (Heart): 3.9 % ID/g
% ID/g Fr-221 (Heart): 6.1 % ID/g
A2(o)/A2(eq) Bi-213 at sacrifice time (Kidneys): 10.0
A2(o)/A2(eq) Fr-221 at sacrifice time (Kidneys): 16.8
% ID/g Ac-225 (Kidneys): 4.7 % ID/g
% ID/g Bi-213 (Kidneys): 46.5 % ID/g
% ID/g Fr-221 (Kidneys): 72.8 % ID/g
A2(o)/A2(eq) Bi-213 at sacrifice time (Liver): 0.87
A2(o)/A2(eq) Fr-221 at sacrifice time (Liver): 0.70
% ID/g Ac-225 (Liver): 7.7 % ID/g
% ID/g Bi-213 (Liver): 6.5 % ID/g
% ID/g Fr-221 (Liver): 5.5 % ID/g
A2(o)/A2(eq) Bi-213 at sacrifice time (Sm. Int.): 4.0
A2(o)/A2(eq) Fr-221 at sacrifice time (Sm. Int.): 13.3
% ID/g Ac-225 (Sm. Int.): 1.6 % ID/g
% ID/g Bi-213 (Sm. Int.): 6.3 % ID/g
% ID/g Fr-221 (Sm. Int.): 18.7 % ID/g
A2(o)/A2(eq) Bi-213 at sacrifice time (Tumor): 0.87
A2(o)/A2(eq) Fr-221 at sacrifice time (Tumor): 0.83
% ID/g Ac-225 (Tumor): 1.60 % ID/g
% ID/g Bi-213 (Tumor): 5.0 % ID/g
% ID/g Fr-221 (Tumor): 4.6 % ID/g
